Experimental findings from patent US20230135471A1, “UBIQUITIN VARIANTS WITH IMPROVED AFFINITY FOR 53BP1” (Integrated DNA Technologies, Inc., priority 2021, published 2023) are described below.

This experiment deals with 53BP1 fragment (a.a. 1221-1718) fused to an adenylate cyclase fragment (two-hybrid) (UniProt Q12888). The experiment can be described thus: cell-based or functional assay.
The substance “i53 + E18L two-hybrid fusion (designed binder)” showed an Experiment 1 Average Enrichment of 0.75 log2, an Experiment 1 Rep 1 Enrichment of 0.75 log2, an Experiment 1 Rep 2 Enrichment of 0.76 log2 and an Experiment 2 Average Enrichment of 0.66 log2. The Experiment 2 Rep 1 Enrichment was 0.62 log2 and the Experiment 2 Rep 2 Enrichment stood at 0.71 log2.
In turn, “i53 + E18N two-hybrid fusion (designed binder)” displayed an Experiment 1 Average Enrichment of -0.45 log2, an Experiment 1 Rep 1 Enrichment of 0.34 log2, an Experiment 1 Rep 2 Enrichment of -1.23 log2 and an Experiment 2 Average Enrichment of 0.1 log2. This substance also returned an Experiment 2 Rep 1 Enrichment of -0.64 log2 and an Experiment 2 Rep 2 Enrichment of 0.85 log2.
As for “i53 + E18Q two-hybrid fusion (designed binder)”, the Experiment 1 Average Enrichment was found to be 0.72 log2, the Experiment 1 Rep 1 Enrichment turned out to be 0.61 log2, the Experiment 1 Rep 2 Enrichment amounted to 0.83 log2 and the Experiment 2 Average Enrichment was 0.03 log2. Besides, the Experiment 2 Rep 1 Enrichment turned out to be 0.02 log2 and the Experiment 2 Rep 2 Enrichment was determined as 0.05 log2.
As for “i53 + E18R two-hybrid fusion (designed binder)”, the Experiment 1 Average Enrichment was -0.75 log2, the Experiment 1 Rep 1 Enrichment is -1.22 log2, the Experiment 1 Rep 2 Enrichment was -0.28 log2 and the Experiment 2 Average Enrichment turned out to be 0.06 log2. In addition, the Experiment 2 Rep 1 Enrichment is -0.24 log2 and the Experiment 2 Rep 2 Enrichment was 0.36 log2.
On to “i53 + E18S two-hybrid fusion (designed binder)”, for which the Experiment 1 Average Enrichment worked out at 0.48 log2, the Experiment 1 Rep 1 Enrichment amounted to 0.47 log2, the Experiment 1 Rep 2 Enrichment came out at 0.49 log2 and the Experiment 2 Average Enrichment worked out at 0.33 log2. The substance also registered an Experiment 2 Rep 1 Enrichment of -0.01 log2 and an Experiment 2 Rep 2 Enrichment of 0.67 log2.
“i53 + E18T two-hybrid fusion (designed binder)” yielded an Experiment 1 Average Enrichment of -0.27 log2, an Experiment 1 Rep 1 Enrichment of -0.33 log2, an Experiment 1 Rep 2 Enrichment of -0.21 log2 and an Experiment 2 Average Enrichment of 0.28 log2. The substance also showed an Experiment 2 Rep 1 Enrichment of 0.23 log2 and an Experiment 2 Rep 2 Enrichment of 0.34 log2.
Substance “i53 + E18W two-hybrid fusion (designed binder)” returned an Experiment 1 Average Enrichment of 0.18 log2, an Experiment 1 Rep 1 Enrichment of 0.06 log2, an Experiment 1 Rep 2 Enrichment of 0.31 log2 and an Experiment 2 Average Enrichment of 0.75 log2. The substance also showed an Experiment 2 Rep 1 Enrichment of 0.8 log2 and an Experiment 2 Rep 2 Enrichment of 0.69 log2.
In turn, “i53 + E18Y two-hybrid fusion (designed binder)” yielded an Experiment 1 Average Enrichment of 0.72 log2, an Experiment 1 Rep 1 Enrichment of 1.28 log2, an Experiment 1 Rep 2 Enrichment of 0.17 log2 and an Experiment 2 Average Enrichment of 0.82 log2. Besides, the Experiment 2 Rep 1 Enrichment was 1.2 log2 and the Experiment 2 Rep 2 Enrichment was found to be 0.44 log2.
“i53 + E34T two-hybrid fusion (designed binder)” showed an Experiment 1 Average Enrichment of 0.12 log2, an Experiment 1 Rep 1 Enrichment of 2.15 log2, an Experiment 1 Rep 2 Enrichment of -1.91 log2 and an Experiment 2 Average Enrichment of -3.54 log2. This substance yielded an Experiment 2 Rep 1 Enrichment of -3.26 log2 and an Experiment 2 Rep 2 Enrichment of -3.83 log2.
As for “i53 + E51D two-hybrid fusion (designed binder)”, the Experiment 1 Average Enrichment was 0.52 log2, the Experiment 1 Rep 1 Enrichment is 0.31 log2, the Experiment 1 Rep 2 Enrichment stood at 0.72 log2 and the Experiment 2 Average Enrichment came to 0.61 log2. Moreover, the Experiment 2 Rep 1 Enrichment came out at 0.29 log2 and the Experiment 2 Rep 2 Enrichment is 0.92 log2.
Regarding “i53 + H68E two-hybrid fusion (designed binder)”, the Experiment 1 Average Enrichment is -1.08 log2, the Experiment 1 Rep 1 Enrichment is -0.69 log2, the Experiment 1 Rep 2 Enrichment was -1.48 log2 and the Experiment 2 Average Enrichment is 0.1 log2. Besides, the Experiment 2 Rep 1 Enrichment was determined as 0.33 log2 and the Experiment 2 Rep 2 Enrichment was -0.13 log2.
